In US20180246086A1:

Molecular target: Hapten-1-BSA, a general complete antigen of type I pyrethroid (bovine) (UniProt P02769)
Test: indirect non-competitive ELISA, plate coated with Hapten-1-BSA at 2.0, 1.0, 0.5 and 0.25 µg/mL, antibody titrated

Sequence of Hapten-1-BSA, a general complete antigen of type I pyrethroid (bovine) (P02769 25-607 limits assumed, form in doubt): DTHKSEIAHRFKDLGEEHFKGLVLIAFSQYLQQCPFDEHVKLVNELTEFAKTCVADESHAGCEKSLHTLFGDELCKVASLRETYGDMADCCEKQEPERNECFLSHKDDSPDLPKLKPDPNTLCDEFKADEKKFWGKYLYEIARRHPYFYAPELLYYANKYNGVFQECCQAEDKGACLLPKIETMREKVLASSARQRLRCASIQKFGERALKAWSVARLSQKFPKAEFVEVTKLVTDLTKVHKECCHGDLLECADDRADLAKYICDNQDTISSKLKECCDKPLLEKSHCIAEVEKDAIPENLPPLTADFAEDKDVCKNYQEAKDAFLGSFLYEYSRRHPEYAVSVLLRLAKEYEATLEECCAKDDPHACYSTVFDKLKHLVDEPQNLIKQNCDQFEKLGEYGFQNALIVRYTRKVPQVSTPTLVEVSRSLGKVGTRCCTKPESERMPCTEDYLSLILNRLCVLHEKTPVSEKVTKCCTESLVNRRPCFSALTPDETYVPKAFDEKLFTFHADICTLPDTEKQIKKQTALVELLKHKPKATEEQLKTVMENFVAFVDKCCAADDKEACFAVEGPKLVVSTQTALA

B1: universal monoclonal antibody against type I pyrethroid secreted by hybridoma cell line QW8# (antibody, IgG2a, V domains shown)
VH: QVTLKESGPGILQPSQTLSLTCSFSGFSLSTYGIGIGWIRQSSGRGLEWLAHIWWNDNRYYNIALKSRLTISKDASNNQFFLKLASVDTADIATYYCVRGYGRPFYAMDYWGQGTTVTVSS
VL: QAVVTQESALTTSPGETVTLTCRSSTGAVTTSNYVNWVQEKPDHLFTGLIGGTNNRGPGVPARFSGSLIGDKAALTITGTQTEDEAIYFCALWYSNHWVFGGGTKLTVL
B1 was tested, and the Ka was 2.16e+08 M⁻¹.
